Reference: PMC5245964
Values belong to the substance of their own block, whether it stands above or below them.

Assays:
Assay in all cases: AUC; sedimentation velocity, 42,000 rpm, 20°C, 0.3–0.5 mg/mL in buffer HST300, continuous c(s) distribution (SEDFIT)
[1] = molecular target: Mis18β (insect-cell-expressed, untagged) (human) (UniProt O43482)
[2] = molecular target: Mis18α:Mis18β complex (insect-cell-expressed) (human) (UniProt Q9NYP9); settings: scale: M18BP1^1–140-MBP per Mis18α:Mis18β hexamer
[3] = molecular target: MBP-Mis18β (insect-cell-expressed) (human) (UniProt O43482)
[4] = molecular target: 6His-Mis18β (insect-cell-expressed) (human) (UniProt O43482)
6His-Mis18β (insect-cell-expressed) (human), sequence (O43482 whole entry): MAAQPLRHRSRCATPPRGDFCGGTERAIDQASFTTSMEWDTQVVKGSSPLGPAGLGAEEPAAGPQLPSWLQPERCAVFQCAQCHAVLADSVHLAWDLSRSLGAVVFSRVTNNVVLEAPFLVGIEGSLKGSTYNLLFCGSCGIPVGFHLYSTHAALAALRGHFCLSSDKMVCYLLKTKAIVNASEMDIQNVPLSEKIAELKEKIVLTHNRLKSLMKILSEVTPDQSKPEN

M18BP1^1–140-MBP, sequence (Q6P0N0 1-140): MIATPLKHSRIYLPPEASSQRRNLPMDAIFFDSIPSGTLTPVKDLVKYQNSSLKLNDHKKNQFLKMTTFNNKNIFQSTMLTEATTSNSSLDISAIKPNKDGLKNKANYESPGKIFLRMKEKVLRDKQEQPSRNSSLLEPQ
Mis18β (insect-cell-expressed, untagged) (human), sequence (O43482 whole entry): as the sequence (O43482 whole entry) above
MBP-Mis18β (insect-cell-expressed) (human), sequence (O43482 whole entry): as above
MBP-Mis18α (insect-cell-expressed), sequence (Q9NYP9 whole entry): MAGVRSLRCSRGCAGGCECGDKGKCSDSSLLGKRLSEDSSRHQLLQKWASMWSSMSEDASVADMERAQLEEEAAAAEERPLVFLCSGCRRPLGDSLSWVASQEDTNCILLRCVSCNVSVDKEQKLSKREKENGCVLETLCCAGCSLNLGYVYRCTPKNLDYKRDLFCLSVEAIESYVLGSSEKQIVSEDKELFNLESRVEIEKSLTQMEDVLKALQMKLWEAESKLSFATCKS
Mis18α (insect-cell-expressed, 6His cleaved), sequence (Q9NYP9 whole entry): as above
6His-Mis18α (insect-cell-expressed), sequence (Q9NYP9 whole entry): as above
Mis18α:Mis18β complex (insect-cell-expressed) (human), sequence (Q9NYP9 whole entry, chain 1 of 2): as the sequence (Q9NYP9 whole entry) above
Mis18α:Mis18β complex (insect-cell-expressed) (human), sequence (O43482 whole entry, chain 2 of 2, further chain): as the sequence (O43482 whole entry) above

stoichiometry N (Mis18α per Mis18β (4:2 hexamer)) [1]: 2
Substance: Mis18α (insect-cell-expressed, 6His cleaved) (from UniProt Q9NYP9 1-233) (natural protein)

stoichiometry N [2]: 2
Substance: M18BP1^1–140-MBP (from UniProt Q6P0N0 1-140) (domain or fragment)

stoichiometry N (MBP-Mis18β per complex) [3]: 2
Substance: 6His-Mis18α (insect-cell-expressed) (from UniProt Q9NYP9 1-233) (natural protein)

stoichiometry N (MBP-Mis18α per complex) [4]: 4
Substance: MBP-Mis18α (insect-cell-expressed) (from UniProt Q9NYP9 1-233) (natural protein)
